To fix the notation:
B4: GST-DZIP1-N (aa 1–293) (domain or fragment, Drosophila, UniProt Q9VC70 1-293, looked up)
chain: MGFKGKYPQMVRETGFKLRQYRDGPLDWRLMGSYETERILREQNFELVDKALTHLSEAPLGTVLETHILDSGIAKYFVMSQYAIQYLMCCRTYLDECVTDLKEAHTTAQEEIATLRKSLSESNNEVVQLHKRITQIEAIREVVYPCHLCTKNFISNEALNVHIGRKHRVASPPSLTSATGKEKDRDKATDVHLINTIKMELEIKQLKERLNAAERNIKERSTGSKRVSPRQEQRHVGIQSNLAEPKEKDEDSGEARQSEASERKEQLTGLAERLSNFEEWQTQLKQSNEQFIQ
notes: Cloned into pGEX-4T-1; also called N-terminus of DZIP1; source: E. coli BL21 (DE3), purified (Glutathione Sepharose)
B6: GST-DZIP1-C (aa 294–737) (domain or fragment, Drosophila, UniProt Q9VC70 294-737, looked up)
chain: DINKRLEGLSHALEQSKQASASTPPLEDRVATPCLEDLERILTEKVAEIGKVSAHRLEEVVYHLEEGYKEKLGALERELKQLSVQKVQPEPVQTVPVASKIPKPVVRKEETNIDRIRKQVESEFLKQKHDDDTYSIEEAPRKGSEKPFPQLVTQVQVVEKEQPSAGSSDSNPTYTKSPREPAPNKQETKEATDVSDSLSQEETENEEERSLTEEEGTDVPTSGSEAAREDPTPKTIKPSGRIIKSPQKPLTRKDARKMVNRKLMSHGFDMKSKGISHNSLKRVNSELTEHRNKLKLQHPHFYATRNRIRKFVEKLCSAKFSERAEMLLKHKSPLKPMEVPGKGIPRSAISEKSEEDIASSQGEEQTDEQTDSSEQQTRSPSPQRLVSRDFKARLEEILVKPAATIRGASKSSLSSRPVPLPRKRVMFNTTEDGKSFNDSDDNLK
notes: Cloned into pGEX-4T-1; also called C-terminus of DZIP1; source: E. coli BL21 (DE3), purified (Glutathione Sepharose)

What all share (experiment): pull-down; GST pull-down: purified His-tagged proteins incubated with GST, GST-DZIP1-N or GST-DZIP1-C in 25 mM Tris-HCl pH 7.4, 150 mM NaCl, 0.5% Triton X-100, 1 mM dithiothreitol, 10% glycerol, overnight at 4°C; blot with anti-His antibodies
Conditions in all cases: both partners purified

The test “GST-DZIP1-N (aa 1–293)” concerns the target B4.
For the test “GST-DZIP1-C (aa 294–737)”, the target named is B6.
The target of another test is T1, His-CEP290-N (aa 1–887) (Drosophila, UniProt Q9W0M1 1-887).
T1 construct: Drosophila centrosomal protein 290 (CEP290); Cloned into pET28a; also called CEP290 N-terminus; source: E. coli BL21 (DE3), purified (His resin)
T1 sequence (looked up): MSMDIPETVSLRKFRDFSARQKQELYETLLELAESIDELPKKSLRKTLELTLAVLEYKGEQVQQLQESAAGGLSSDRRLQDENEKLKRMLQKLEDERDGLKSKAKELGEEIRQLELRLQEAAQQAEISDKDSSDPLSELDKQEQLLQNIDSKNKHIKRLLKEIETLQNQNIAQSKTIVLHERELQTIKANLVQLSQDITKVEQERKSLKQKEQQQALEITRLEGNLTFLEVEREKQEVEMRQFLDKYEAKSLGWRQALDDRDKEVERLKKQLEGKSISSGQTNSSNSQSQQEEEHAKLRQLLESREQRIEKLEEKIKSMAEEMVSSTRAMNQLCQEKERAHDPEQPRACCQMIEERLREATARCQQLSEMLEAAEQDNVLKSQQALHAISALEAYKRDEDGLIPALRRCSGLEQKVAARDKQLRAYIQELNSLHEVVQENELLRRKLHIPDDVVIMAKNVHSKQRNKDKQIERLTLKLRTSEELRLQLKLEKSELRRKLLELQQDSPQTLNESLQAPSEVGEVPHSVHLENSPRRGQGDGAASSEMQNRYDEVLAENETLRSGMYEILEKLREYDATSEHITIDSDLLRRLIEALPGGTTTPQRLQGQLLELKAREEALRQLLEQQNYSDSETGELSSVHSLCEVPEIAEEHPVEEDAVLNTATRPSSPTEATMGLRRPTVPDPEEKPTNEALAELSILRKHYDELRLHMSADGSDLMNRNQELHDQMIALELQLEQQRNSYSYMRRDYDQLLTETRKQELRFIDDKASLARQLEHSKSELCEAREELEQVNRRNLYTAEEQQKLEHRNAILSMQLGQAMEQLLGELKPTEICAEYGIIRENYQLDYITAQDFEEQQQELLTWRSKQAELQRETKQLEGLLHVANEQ

B1: CEP290 N (aa 651–887) (domain or fragment, Drosophila, UniProt Q9W0M1 651-887, looked up)
chain: EHPVEEDAVLNTATRPSSPTEATMGLRRPTVPDPEEKPTNEALAELSILRKHYDELRLHMSADGSDLMNRNQELHDQMIALELQLEQQRNSYSYMRRDYDQLLTETRKQELRFIDDKASLARQLEHSKSELCEAREELEQVNRRNLYTAEEQQKLEHRNAILSMQLGQAMEQLLGELKPTEICAEYGIIRENYQLDYITAQDFEEQQQELLTWRSKQAELQRETKQLEGLLHVANEQ
notes: Drosophila centrosomal protein 290 (CEP290); This construct is not described in the methods; probably His-tagged and made in E. coli like His-CEP290-N
For B1, the binding result in the test with GST-DZIP1-N (aa 1–293) and with GST-DZIP1-C (aa 294–737) was “binds” throughout.

B2: His-Rab8 (natural protein, Drosophila, UniProt O18338 1-207, looked up)
chain: MAKTYDYLFKLLLIGDSGVGKTCILFRFSEDAFNTTFISTIGIDFKIRTIELDNKKIKLQIWDTAGQERFRTITTAYYRGAMGIMLVYDITQEKSFENIKNWIRNIEENASADVEKMLLGNKCELTDKRQVSKERGEQLAIEYGIKFMETSAKASINVEEAFLTLASDIKAKTEKRMEANNPPKGGHQLKPMDSRTKDSWLSRCSLL
notes: Drosophila Rab8; Cloned into pET28a; source: E. coli BL21 (DE3), purified (His resin)
Turning to B2, the binding result in the test with GST-DZIP1-N (aa 1–293) is listed as “binds”.

B3: His-Rab8^T22N (natural protein, Drosophila, UniProt O18338 1-207, looked up)
chain: MAKTYDYLFKLLLIGDSGVGKNCILFRFSEDAFNTTFISTIGIDFKIRTIELDNKKIKLQIWDTAGQERFRTITTAYYRGAMGIMLVYDITQEKSFENIKNWIRNIEENASADVEKMLLGNKCELTDKRQVSKERGEQLAIEYGIKFMETSAKASINVEEAFLTLASDIKAKTEKRMEANNPPKGGHQLKPMDSRTKDSWLSRCSLL
notes: Drosophila Rab8 with T22N; Cloned into pET28a; also called Rab8^GDP-mimicking mutant; source: E. coli BL21 (DE3), purified (His resin)
B3: the binding result with GST-DZIP1-N (aa 1–293) is listed as “binds”.
Take B4: the binding result with His-CEP290-N (aa 1–887) is on record as “binds”.

B5: CEP290 N (aa 401–650) (domain or fragment, Drosophila, UniProt Q9W0M1 401-650, looked up)
chain: GLIPALRRCSGLEQKVAARDKQLRAYIQELNSLHEVVQENELLRRKLHIPDDVVIMAKNVHSKQRNKDKQIERLTLKLRTSEELRLQLKLEKSELRRKLLELQQDSPQTLNESLQAPSEVGEVPHSVHLENSPRRGQGDGAASSEMQNRYDEVLAENETLRSGMYEILEKLREYDATSEHITIDSDLLRRLIEALPGGTTTPQRLQGQLLELKAREEALRQLLEQQNYSDSETGELSSVHSLCEVPEIAE
notes: as for B1
Regarding B5, the binding result with GST-DZIP1-N (aa 1–293) is “binds”.
In the case of B6, the binding result with His-CEP290-N (aa 1–887) is “binds”.

These data come from PMC7793253, “CEP290 is essential for the initiation of ciliary transition zone assembly” (PLoS Biology, 2020).
